Data from publication PMC9482650, “Quantitative fragmentomics allow affinity mapping of interactomes” (Nature Communications, 2022).

T1: SYNJ2BP, P57105
T1 sequence (P57105 8-110, limits assumed, looked up): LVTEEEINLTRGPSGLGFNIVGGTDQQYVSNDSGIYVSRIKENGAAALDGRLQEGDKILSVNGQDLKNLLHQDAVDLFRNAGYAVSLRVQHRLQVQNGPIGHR

T2: LRRC7, Q96NW7
T2 sequence (Q96NW7 1440-1537, limits assumed, looked up): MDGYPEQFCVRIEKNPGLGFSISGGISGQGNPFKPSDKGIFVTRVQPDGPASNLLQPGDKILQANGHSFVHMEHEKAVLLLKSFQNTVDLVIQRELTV

T3: GRIP1_2, Q9Y3R0
T3 sequence (Q9Y3R0 145-248, limits assumed, looked up): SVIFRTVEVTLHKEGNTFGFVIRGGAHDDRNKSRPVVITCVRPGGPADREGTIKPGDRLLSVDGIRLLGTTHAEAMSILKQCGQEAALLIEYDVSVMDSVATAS

T4: PTPN13_1, Q12923
T4 sequence (Q12923 1088-1188, limits assumed, looked up): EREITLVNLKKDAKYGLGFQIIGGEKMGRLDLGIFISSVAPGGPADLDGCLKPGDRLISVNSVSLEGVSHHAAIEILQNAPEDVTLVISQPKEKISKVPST

T5: PDZRN3_1, Q9UPQ7
T5 sequence (Q9UPQ7 244-349, limits assumed, looked up): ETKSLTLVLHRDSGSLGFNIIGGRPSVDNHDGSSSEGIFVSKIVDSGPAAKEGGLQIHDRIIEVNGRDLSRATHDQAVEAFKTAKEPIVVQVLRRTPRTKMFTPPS

T6: TIAM2, Q8IVF5
T6 sequence (Q8IVF5 885-986, limits assumed, looked up): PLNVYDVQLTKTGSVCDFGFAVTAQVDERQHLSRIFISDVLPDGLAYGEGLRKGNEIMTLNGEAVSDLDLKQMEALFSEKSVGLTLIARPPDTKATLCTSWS

T7: FRMPD1, Q5SYB0
T7 sequence (Q5SYB0 52-145, limits assumed, looked up): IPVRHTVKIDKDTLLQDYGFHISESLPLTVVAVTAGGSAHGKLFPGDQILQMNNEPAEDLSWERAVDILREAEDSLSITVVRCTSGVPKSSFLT

T8: SNTG1, Q9NSN8
T8 sequence (Q9NSN8 52-150, limits assumed, looked up): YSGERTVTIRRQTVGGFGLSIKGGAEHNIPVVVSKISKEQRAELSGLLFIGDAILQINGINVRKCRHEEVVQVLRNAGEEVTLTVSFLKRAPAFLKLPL

T9: TX1BP3, O14907
T9 sequence (O14907 10-122, limits assumed, looked up): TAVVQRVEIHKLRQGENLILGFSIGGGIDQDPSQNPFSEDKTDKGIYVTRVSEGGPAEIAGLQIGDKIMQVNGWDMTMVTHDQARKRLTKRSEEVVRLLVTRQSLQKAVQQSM

T10: PDZD2_2, O15018
T10 sequence (O15018 329-429, limits assumed, looked up): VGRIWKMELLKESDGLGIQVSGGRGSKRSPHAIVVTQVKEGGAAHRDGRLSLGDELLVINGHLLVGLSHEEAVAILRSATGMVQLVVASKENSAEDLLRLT

T11: PCLO, Q9Y6V0
T11 sequence (Q9Y6V0 4491-4600, limits assumed, looked up): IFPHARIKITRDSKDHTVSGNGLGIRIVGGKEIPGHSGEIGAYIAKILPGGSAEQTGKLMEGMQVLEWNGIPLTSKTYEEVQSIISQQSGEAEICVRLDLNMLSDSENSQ

T12: DFNB31_2, Q9P202
T12 sequence (Q9P202 274-371, limits assumed, looked up): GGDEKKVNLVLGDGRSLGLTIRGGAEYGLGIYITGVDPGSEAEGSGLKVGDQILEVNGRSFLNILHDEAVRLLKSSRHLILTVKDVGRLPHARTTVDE

T13: MPP2, Q14168
T13 sequence (Q14168 180-250, limits assumed, looked up): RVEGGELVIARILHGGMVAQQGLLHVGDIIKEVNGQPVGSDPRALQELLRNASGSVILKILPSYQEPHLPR

T14: DFNB31_1, Q9P202
T14 sequence (Q9P202 135-233, limits assumed, looked up): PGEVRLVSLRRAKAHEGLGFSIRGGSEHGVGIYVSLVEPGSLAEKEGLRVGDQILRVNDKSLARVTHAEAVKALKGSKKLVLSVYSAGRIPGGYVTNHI


Each binder was assayed against T1, SYNJ2BP, P57105 (assay: holdup assay). Conditions: plain residues with an end cap or a label only (N-terminal biotin on a linker: ado-ado).
Design: key: below the threshold = too weak to quantify, mostly under pKd 3.1 to 4
With RQSILFSTEV [BCR, P11274] the pKd was 5.28.
Binder PELESKESVL [SLC1A4, P43007] has a pKd of 4.34.

Each binder was assayed against T2, LRRC7, Q96NW7 (assay: holdup assay). Conditions: plain residues with an end cap or a label only (N-terminal biotin on a linker: ado-ado).
Design: key: below the threshold = too weak to quantify, mostly under pKd 3.1 to 4
Work on RQSILFSTEV [BCR, P11274] yielded a pKd of 3.88.
PELESKESVL [SLC1A4, P43007] gave a pKd of 3.53.

What follows are binders tested against T3, GRIP1_2, Q9Y3R0 (assay: holdup assay). Conditions: plain residues with an end cap or a label only (N-terminal biotin on a linker: ado-ado).
Design: key: below the threshold = too weak to quantify, mostly under pKd 3.1 to 4
For RQSILFSTEV [BCR, P11274], the pKd was “below the threshold”.
In the case of PELESKESVL [SLC1A4, P43007], the pKd is reported as “below the threshold”.

Each binder was assayed against CASK, O14936 (assay: holdup assay). Conditions: plain residues with an end cap or a label only (N-terminal biotin on a linker: ado-ado).
CASK, O14936, sequence (O14936 487-570): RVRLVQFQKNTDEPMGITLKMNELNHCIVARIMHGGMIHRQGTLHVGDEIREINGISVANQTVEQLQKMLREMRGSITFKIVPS
Design: key: below the threshold = too weak to quantify, mostly under pKd 3.1 to 4
With RQSILFSTEV [BCR, P11274] the pKd was “below the threshold”.
PELESKESVL [SLC1A4, P43007] was tested, and the pKd was “below the threshold”.

The binders below were run against T4, PTPN13_1, Q12923 (assay: holdup assay). Conditions: plain residues with an end cap or a label only (N-terminal biotin on a linker: ado-ado).
Design: key: below the threshold = too weak to quantify, mostly under pKd 3.1 to 4
With RQSILFSTEV [BCR, P11274] the pKd was “below the threshold”.
For PELESKESVL [SLC1A4, P43007], the pKd was “below the threshold”.

What follows are binders tested against SNX27, Q96L92 (assay: holdup assay). Conditions: plain residues with an end cap or a label only (N-terminal biotin on a linker: ado-ado).
Design: key: below the threshold = too weak to quantify, mostly under pKd 3.1 to 4
RQSILFSTEV [BCR, P11274] gave a pKd of 4.89.
With PELESKESVL [SLC1A4, P43007] the pKd was 5.43.

These binders were tested against T5, PDZRN3_1, Q9UPQ7 (assay: holdup assay). Conditions: plain residues with an end cap or a label only (N-terminal biotin on a linker: ado-ado).
Design: key: below the threshold = too weak to quantify, mostly under pKd 3.1 to 4
With RQSILFSTEV [BCR, P11274] the pKd was 4.03.
Work on PELESKESVL [SLC1A4, P43007] yielded a pKd of 4.46.

These binders were tested against FRMPD2_3, Q68DX3 (assay: holdup assay). Conditions: plain residues with an end cap or a label only (N-terminal biotin on a linker: ado-ado).
FRMPD2_3, Q68DX3, sequence (Q68DX3 1073-1166): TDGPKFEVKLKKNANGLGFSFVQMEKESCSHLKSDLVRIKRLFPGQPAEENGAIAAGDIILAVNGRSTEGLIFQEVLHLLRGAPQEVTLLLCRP
Design: key: below the threshold = too weak to quantify, mostly under pKd 3.1 to 4
With RQSILFSTEV [BCR, P11274] the pKd was “below the threshold”.
With PELESKESVL [SLC1A4, P43007] the pKd was “below the threshold”.

Each binder was assayed against Inadl_3, Q8NI35 (assay: holdup assay). Conditions: plain residues with an end cap or a label only (N-terminal biotin on a linker: ado-ado).
Inadl_3, Q8NI35, sequence (Q8NI35 359-469): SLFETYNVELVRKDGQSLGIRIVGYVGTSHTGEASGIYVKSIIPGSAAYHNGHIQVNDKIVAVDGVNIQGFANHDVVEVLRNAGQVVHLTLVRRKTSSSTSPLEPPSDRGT
Design: key: below the threshold = too weak to quantify, mostly under pKd 3.1 to 4
For RQSILFSTEV [BCR, P11274], the pKd was 4.66.
For PELESKESVL [SLC1A4, P43007], the pKd was “below the threshold”.

The binders below were run against T6, TIAM2, Q8IVF5 (assay: holdup assay). Conditions: plain residues with an end cap or a label only (N-terminal biotin on a linker: ado-ado).
Design: key: below the threshold = too weak to quantify, mostly under pKd 3.1 to 4
With RQSILFSTEV [BCR, P11274] the pKd was “below the threshold”.
In the case of PELESKESVL [SLC1A4, P43007], the pKd is reported as “below the threshold”.

The binders below were run against FRMPD4, Q14CM0 (assay: holdup assay). Conditions: plain residues with an end cap or a label only (N-terminal biotin on a linker: ado-ado).
FRMPD4, Q14CM0, sequence (Q14CM0 67-160): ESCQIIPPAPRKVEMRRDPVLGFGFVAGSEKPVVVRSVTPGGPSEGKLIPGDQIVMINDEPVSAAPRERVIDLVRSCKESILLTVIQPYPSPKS
Design: key: below the threshold = too weak to quantify, mostly under pKd 3.1 to 4
With RQSILFSTEV [BCR, P11274] the pKd was “below the threshold”.
Binder PELESKESVL [SLC1A4, P43007] has a pKd of 3.85.

These binders were tested against T7, FRMPD1, Q5SYB0 (assay: holdup assay). Conditions: plain residues with an end cap or a label only (N-terminal biotin on a linker: ado-ado).
Design: key: below the threshold = too weak to quantify, mostly under pKd 3.1 to 4
RQSILFSTEV [BCR, P11274] was tested, and the pKd was “below the threshold”.
For PELESKESVL [SLC1A4, P43007], the pKd was “below the threshold”.

The binders below were run against T8, SNTG1, Q9NSN8 (assay: holdup assay). Conditions: plain residues with an end cap or a label only (N-terminal biotin on a linker: ado-ado).
Design: key: below the threshold = too weak to quantify, mostly under pKd 3.1 to 4
Work on RQSILFSTEV [BCR, P11274] yielded a pKd of 4.67.
With PELESKESVL [SLC1A4, P43007] the pKd was 3.68.

These binders were tested against T9, TX1BP3, O14907 (assay: holdup assay). Conditions: plain residues with an end cap or a label only (N-terminal biotin on a linker: ado-ado).
Design: key: below the threshold = too weak to quantify, mostly under pKd 3.1 to 4
In the case of RQSILFSTEV [BCR, P11274], the pKd is reported as 4.82.
PELESKESVL [SLC1A4, P43007] gave a pKd of 4.1.

The binders below were run against GIPC2, Q8TF65 (assay: holdup assay). Conditions: plain residues with an end cap or a label only (N-terminal biotin on a linker: ado-ado).
GIPC2, Q8TF65, sequence (Q8TF65 112-203): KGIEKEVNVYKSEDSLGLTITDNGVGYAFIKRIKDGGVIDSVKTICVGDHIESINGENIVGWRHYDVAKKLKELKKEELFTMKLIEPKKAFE
Design: key: below the threshold = too weak to quantify, mostly under pKd 3.1 to 4
With RQSILFSTEV [BCR, P11274] the pKd was 3.56.
In the case of PELESKESVL [SLC1A4, P43007], the pKd is reported as “below the threshold”.

Each binder was assayed against T10, PDZD2_2, O15018 (assay: holdup assay). Conditions: plain residues with an end cap or a label only (N-terminal biotin on a linker: ado-ado).
Design: key: below the threshold = too weak to quantify, mostly under pKd 3.1 to 4
Work on RQSILFSTEV [BCR, P11274] yielded a pKd of 4.76.
PELESKESVL [SLC1A4, P43007] was tested, and the pKd was 4.16.

What follows are binders tested against DLG5_1, Q8TDM6 (assay: holdup assay). Conditions: plain residues with an end cap or a label only (N-terminal biotin on a linker: ado-ado).
DLG5_1, Q8TDM6, sequence (Q8TDM6 617-713): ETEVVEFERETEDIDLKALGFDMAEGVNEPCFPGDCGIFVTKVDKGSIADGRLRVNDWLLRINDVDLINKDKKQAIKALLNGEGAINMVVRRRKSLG
Design: key: below the threshold = too weak to quantify, mostly under pKd 3.1 to 4
For RQSILFSTEV [BCR, P11274], the pKd was “below the threshold”.
PELESKESVL [SLC1A4, P43007] was tested, and the pKd was “below the threshold”.

Each binder was assayed against T11, PCLO, Q9Y6V0 (assay: holdup assay). Conditions: plain residues with an end cap or a label only (N-terminal biotin on a linker: ado-ado).
Design: key: below the threshold = too weak to quantify, mostly under pKd 3.1 to 4
For RQSILFSTEV [BCR, P11274], the pKd was “below the threshold”.
PELESKESVL [SLC1A4, P43007] was tested, and the pKd was “below the threshold”.

The binders below were run against T12, DFNB31_2, Q9P202 (assay: holdup assay). Conditions: plain residues with an end cap or a label only (N-terminal biotin on a linker: ado-ado).
Design: key: below the threshold = too weak to quantify, mostly under pKd 3.1 to 4
RQSILFSTEV [BCR, P11274] was tested, and the pKd was “below the threshold”.
PELESKESVL [SLC1A4, P43007] showed a pKd of 3.5.

The binders below were run against MAGI1_2, Q96QZ7 (assay: holdup assay). Conditions: plain residues with an end cap or a label only (N-terminal biotin on a linker: ado-ado).
MAGI1_2, Q96QZ7, sequence (Q96QZ7 456-580): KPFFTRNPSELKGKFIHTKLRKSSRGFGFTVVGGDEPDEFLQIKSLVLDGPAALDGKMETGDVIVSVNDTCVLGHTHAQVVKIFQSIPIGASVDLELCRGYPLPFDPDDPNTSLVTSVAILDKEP
Design: key: below the threshold = too weak to quantify, mostly under pKd 3.1 to 4
RQSILFSTEV [BCR, P11274] gave a pKd of 3.91.
In the case of PELESKESVL [SLC1A4, P43007], the pKd is reported as “below the threshold”.

What follows are binders tested against T13, MPP2, Q14168 (assay: holdup assay). Conditions: plain residues with an end cap or a label only (N-terminal biotin on a linker: ado-ado).
Design: key: below the threshold = too weak to quantify, mostly under pKd 3.1 to 4
In the case of RQSILFSTEV [BCR, P11274], the pKd is reported as “below the threshold”.
PELESKESVL [SLC1A4, P43007] was tested, and the pKd was “below the threshold”.

These binders were tested against T14, DFNB31_1, Q9P202 (assay: holdup assay). Conditions: plain residues with an end cap or a label only (N-terminal biotin on a linker: ado-ado).
Design: key: below the threshold = too weak to quantify, mostly under pKd 3.1 to 4
RQSILFSTEV [BCR, P11274] gave a pKd of 4.27.
Binder PELESKESVL [SLC1A4, P43007] has a pKd of 3.6.

What follows are binders tested against GRIP2_6, Q9C0E4 (assay: holdup assay). Conditions: plain residues with an end cap or a label only (N-terminal biotin on a linker: ado-ado).
GRIP2_6, Q9C0E4, sequence (Q9C0E4 648-740): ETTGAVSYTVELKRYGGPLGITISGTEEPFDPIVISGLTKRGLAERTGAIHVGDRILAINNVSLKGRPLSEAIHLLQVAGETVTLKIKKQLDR
Design: key: below the threshold = too weak to quantify, mostly under pKd 3.1 to 4
Work on RQSILFSTEV [BCR, P11274] yielded a pKd of 4.47.
In the case of PELESKESVL [SLC1A4, P43007], the pKd is reported as “below the threshold”.
